In patent US20210371484A1 (SYLUS, published 2021):

T1: Soluble mouse EPOR chimera protein (mouse, UniProt P14753 25-249)
T1 construct: Bought reagent (R&D Systems), amine-coupled to a carboxymethylated dextran SPR chip; it says only 'soluble' and 'chimera'; also called Receptor mouse EPOR chimera protein; erythropoietin receptor
T1 sequence (looked up): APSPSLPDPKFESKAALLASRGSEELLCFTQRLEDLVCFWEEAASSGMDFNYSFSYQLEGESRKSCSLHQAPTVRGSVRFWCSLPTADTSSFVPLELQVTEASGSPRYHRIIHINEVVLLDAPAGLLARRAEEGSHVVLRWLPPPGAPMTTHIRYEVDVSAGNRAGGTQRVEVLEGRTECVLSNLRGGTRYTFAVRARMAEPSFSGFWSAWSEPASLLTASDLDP

B1: SY-2 (peptide)
peptide: LQLHVLKAVSGLRTLTMIRRALG
notes: Synthetic 23-mer made as a monomer by solid phase synthesis; also called erythropoietin-induced peptide
B2: SY-3 (peptide)
peptide: LQLHVLKAVAGLRTLTMIRRALA
notes: as for B1
B3: SY-1 (peptide)
peptide: LQLHVLKAVSGLRTLTTLLRALG
notes: Synthetic 23-mer made as a monomer by solid phase synthesis; No terminal protecting group is stated for the peptide as tested; also called erythropoietin-induced peptide

Biological target: T1, Soluble mouse EPOR chimera protein
Test: SPR (Reichert SR 7500C), mouse EPOR chimera amine-coupled on chip, peptide flowed at 5, 2.5 and 1.25 uM
Experimental: Specifically, the real-time SPR analysis was performed using Reichert SPR Biosensor SR 7500C equipment (Reichert Inc., NY, USA). Receptor mouse EPOR chimera protein (Soluble mouse EPOR chimera protein)(R&D Systems, Minneapolis, Minn., USA) was covalently bonded to a chip (BR-1005-39, Pharmacia Biosensor AB) coated with carboxy methylated dextran matrix by an amine coupling procedure using an amine coupling kit (BR-1000-50, GE Healthcare, USA) according to the manufacturer's manual. Peptides having concentrations of 5, 2.5 and 1.25 μM according to the present disclosure and scrambled peptides were tested by flowing at a flow rate of 5 μl/minute. In addition, the experiment was independently repeated to increase the accuracy. In addition, DMSO was flowed at 5 μl/minute to normalize the signal. After sufficiently inducing the binding of the peptide of an aspect to the receptor, regeneration was induced by injecting 20 μl/minute of 25 mM acetic acid into a sensor chip.

Kd	Binder
1550 µM	B1
2160 µM	B2
1410 µM	B3
